Test results: patent US20210318322A1 (Janssen / Centocor, published 2021)
Positions count from the first letter of the chain named.

T1: cynomolgus VISTA extracellular domain (cynomolgus, UniProt A0A7N9IB00 33-194)
T1 construct: extracellular domain; also called cyno VISTA ECD; SB0361 (cyno (cynomolgus))
T1 sequence: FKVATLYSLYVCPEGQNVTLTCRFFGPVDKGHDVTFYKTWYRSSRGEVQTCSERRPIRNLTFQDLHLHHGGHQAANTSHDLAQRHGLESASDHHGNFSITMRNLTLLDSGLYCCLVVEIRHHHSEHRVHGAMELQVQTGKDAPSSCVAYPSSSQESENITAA

T2: human VISTA expressed on cells (human, UniProt Q9H7M9 33-295)
T2 sequence: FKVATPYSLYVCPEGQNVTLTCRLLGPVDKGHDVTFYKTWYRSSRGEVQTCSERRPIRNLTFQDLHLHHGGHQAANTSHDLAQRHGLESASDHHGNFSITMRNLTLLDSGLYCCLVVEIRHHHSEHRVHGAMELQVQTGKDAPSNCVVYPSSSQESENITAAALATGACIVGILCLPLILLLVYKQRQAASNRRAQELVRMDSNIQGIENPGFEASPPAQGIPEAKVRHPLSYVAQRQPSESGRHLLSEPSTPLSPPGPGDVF

B1: VSTB174 (antibody, human IgG1, kappa)
heavy: not shown
light: DIQMTQSPSSLSASVGDRVTITCRASQSIDTRLNWYQQKPGKAPKLLIYSASSLQSGVPSRFSGSGSGTDFTLTISSLQPEDFATYYCQQSAYNPITFGQGTKVEIKRTVAAPSVFIFPPSDEQLKSGTASVVCLLNNFYPREAKVQWKVDNALQSGNSQESVTEQDSKDSTYSLSSTLTLSKADYEKHKVYACEVTHQGLSSPVTKSFNRGEC
B2: VSTB116 (antibody, human IgG1, kappa)
heavy: not shown
light: B1 light with D30N, R32N, S50A, S91A, A92R, Y93D, N94T
notes: also called S5; INX Code 5
B3: VSTB50 (antibody, human IgG1, kappa, V domains shown)
VH: QVQLVQSGSELKKPGASVKVSCKASGYTFTNYGLNWVRQAPGQGLEWMGWINPYTGEPTYADDFKGRFVFSLDTSVSTAYLQICSLKAEDTAVYYCAREGYGNYIFPYWGQGTLVTVSS
VL: DIVMTQTPLSLSVTPGQPASISCRASESVDTYANSLMHWYLQKPGQPPQLLIYRASNLESGVPDRFSGSGSGTDFTLKISRVEAEDVGVYYCQQTNEDPRTFGQGTKLEIKR
notes: also called S41; INX Code 41
B4: VSTB60 (antibody, human IgG1, kappa, V domains shown)
VH: B3 VH with L34M, N35T, P53T, P58S, E99D, G100Y, N103I, I105V, F106S, P107A
VL: B3 VL with T31N, L36F, P47S, T95S, N96H, R100Y
notes: also called S47; INX Code 47
B5: VSTB95 (antibody, human IgG1, kappa, V domains shown)
VH: EVQLVESGGGLVQPGGSLRLSCAASGFTFRNYGMSWVRQAPGKGLEWVASIISGGSYTYYPDSVKGRFTISRDNAKNSLYLQMNSLRAEDTAVYYCARIYDHDGDYYAMDYWGQGTTVTVSS
VL: DIVMTQSPLSLPVTPGEPASISCRSSQSIVHSNGNTYLEWYLQKPGQSPQLLIYKVSNRFSGVPDRFSGSGSGTDFTLKISRVEAEDVGVYYCFQGSHVPWTFGQGTKLEIKR
notes: also called S16; INX Code 16
B6: VSTB53 (antibody, human IgG1, kappa, V domains shown)
VH: QVQLVQSGAEVKKPGASVKVSCKASGYTFTHYTIHWVRQAPGQGLEWMGYIIPSSGYSEYNQKFKDRVTMTRDTSTSTVYMELSSLRSEDTAVYYCARGAYDDYYDYYAMDYWGQGTLVTVSS
VL: B5 VL with S28T, G96A
notes: also called S43; INX Code 43
B7: VSTB112 (antibody, human IgG1, kappa)
heavy: not shown
light: B1 light
notes: also called S2; INX Code 2

target: T1, cynomolgus VISTA extracellular domain; test: SPR ProteOn

Row | Kd [nM] | Binder
1 | 0.0866 | B1

target: T3, human VISTA extracellular domain (human, UniProt Q9H7M9 33-194); test: SPR ProteOn
T3 construct: also called human VISTA ECD; SB0361 (human)

Row | Kd [nM] | koff [s⁻¹] | kon [M⁻¹ s⁻¹] | Binder
2 | 0.213 | 0.000267 | 1.25e+06 | B2
3 | 0.632 | 0.000305 | 482000 | B3
4 | 0.356 | 0.000183 | 514000 | B4
5 | 0.126 | 6.99e-05 | 554000 | B5
6 | 0.0264 | 3.3e-05 | 1.25e+06 | B6

target: T1, cynomolgus VISTA extracellular domain; test: SPR ProteOn; remark: another data set of the same source

Row | Kd [nM] | koff [s⁻¹] | kon [M⁻¹ s⁻¹] | Binder
7 | 0.0866 |  |  | B7
8 | 0.137 | 0.000117 | 851000 | B2
9 | 0.31 | 0.000219 | 708000 | B3
10 | 0.252 | 0.000143 | 569000 | B4
11 | 0.192 | 8.53e-05 | 443000 | B5
12 | 0.0528 | 6.22e-05 | 1.18e+06 | B6

target: T2, human VISTA expressed on cells; test: cell-based or functional assay

Row | IC50, CPM in the MLR | IC50, IFN-gamma in the MLR | Binder
13 | -0.78 log10 of antibody concentration | -0.16 log10 of antibody concentration | B2
14 | -0.12 log10 of antibody concentration | 0.06 log10 of antibody concentration | B3
15 | 0.02 log10 of antibody concentration | 0.4 log10 of antibody concentration | B4
16 | -0.54 log10 of antibody concentration | 0.22 log10 of antibody concentration | B5
17 | -0.33 log10 of antibody concentration | 0.27 log10 of antibody concentration | B6

target: T2, human VISTA expressed on cells; test: cell-based or functional assay; remark: another data set of the same source

Row | IC50, CPM in the SEB assay | IC50, IFN-gamma in the SEB assay | Binder
18 | -1.44 log10 of antibody concentration | -0.35 log10 of antibody concentration | B2
19 | -0.74 log10 of antibody concentration | 1.69 log10 of antibody concentration | B3
20 | -1.12 log10 of antibody concentration | 0.05 log10 of antibody concentration | B5
21 | -1.06 log10 of antibody concentration | -1.05 log10 of antibody concentration | B6

target: T2, human VISTA expressed on cells; test: cell-based or functional assay; remark: another data set of the same source

Row | EC50 IFN-gamma production, MLR [µg/mL] | EC50 proliferation, MLR [µg/mL] | Binder
22 | 0.69 | 0.17 | B2
23 | 1.14 | 0.77 | B3
24 | 2.48 | 1.04 | B4
25 | 1.67 | 0.29 | B5
26 | 1.88 | 0.47 | B6
